Experimental data as given in the supplement of paper PMC9170038.

System: MS2 coat protein
Experiment: apparent KD of MS2 coat protein; designed switch direction (-1 OFF switch, 1 ON switch): -1; higher = weaker reporter binding
In short: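 Each step of the titration lasted 0.8–1.5 h at the lowest concentration and 10–20 min at the highest. The protein, SNAP-549-labelled MS2 coat protein, went from 0.7 or 1.5 nM doubling to 3 µM over RNA switches transcribed on Illumina chips by stalled E. coli RNA polymerase. Normalised cluster fluorescence was curve-fitted, and the per-design median over clusters is given as apparent KD.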

[1] = input ligand: microRNA oligo, concentration not stated
[2] = Eterna round: R95, input ligand: microRNA oligo, concentration not stated
[3] = Eterna round: R95, input ligand: FMN 200 uM
[4] = Eterna round: R95, input ligand: none

Row | Sequence | apparent KD of MS2 coat protein (input ligand: FMN 200 uM) [nM] | apparent KD of MS2 coat protein (input ligand: none) [nM] | apparent KD of MS2 coat protein [2] [nM] | further results
1 | UACAUGAGGAUCACCCAUGUUUUGUCGUGUAUGGUAUUUAUCUAGGAUAUCAAUUUAUUUAGUUAUGAGAAGGAGAAUAUUAAU [JMF's solution 22] (Eterna round: R96, puzzle: Exclusion NG 3) | 46.8 | 37.9 |  | apparent KD of MS2 coat protein [1]: 27.7 nM
2 | UAUUUAGCAAGUAGAUCCUACAUGAGGAUCACCCAUGUGCUCUGAAAUAACGCAGAAUUACUGCGAGCUCGUCUUAU [Winner reversed engineered 28] (Eterna round: R97, puzzle: Sensor, turn-off variant 1) | 1080 | 1560 |  | 
3 | AUAAAUCAUGUAGGAUAUGCGUGGCAAAGCUAUGCAGAAGGACAUGAGGAUCACCCAUGUUCUUCCGUCUGCGUACAGACGGAA [Mat - Exclusion NG 1 - Mod of JL - D40] (Eterna round: R96, puzzle: Exclusion NG 1) | 418 | 37.3 |  | apparent KD of MS2 coat protein [1]: 31.4 nM
4 | CUUUUGUGAGGAUAUUAGUAGUAAAUAAAUAAAAUUAUUACUGAGAAGGCACAUGAGGAUCACCCAUGUUCCUC [salish99_ex4_r3_062] (puzzle: Exclusion 4) |  |  | 35.1 | 
5 | AGUACUAACACGAAAGUGUUAGUACAAUAAGCUUGUGAUACAUGAGGAUCACCCAUGUCCUCAUAAGCUCGUCUUAU [salish99_TOv2_r3_045] (Eterna round: R96, puzzle: Sensor v3, turn-off variant 2) | 23.7 | 24.2 |  | apparent KD of MS2 coat protein [1]: 714 nM
6 | ACAAGCUCUGUGGGUGGUGACAUGAGGAUCACCCAUGUUUUGCUCGUCUUGUCCCGGGCCCGGCGCCCGGGCCCGGG [-40.4, -69.3, A 12%] (Eterna round: R97, puzzle: Sensor, turn-off variant 1) | 625 | 1340 |  | 
7 | AGUAGAUCUACGCUUGCGUGGAUCUGCUAUGCAGGUGUCACAUGAGGAUCACCCAUGUCCUCAUUUGUUCGUCUUAU [JL turnoff v2 99.16] (puzzle: Sensor v3, turn-off variant 2) |  |  | 33.8 | apparent KD of MS2 coat protein [3]: 18.7 nM; apparent KD of MS2 coat protein [4]: 15.5 nM
8 | AGAGAAUACUCAGGAUAUCUUAAUAGAAAGAGUAGAGAAGGGAGACAUGAGGAUCACCCAUGUGAAGUCUUGAGACUACAUGGU [Prohibition 28 - Jieux - Exclusion NG 1] (Eterna round: R96, puzzle: Exclusion NG 1) |  |  |  | apparent KD of MS2 coat protein [1]: 305 nM
9 | GUGUACAGAGGAUAUACUCGAAUCUAGCGAAGCUAGGUUUGACAUGAGGAUCACCCAUGUAGAAGGCUGUACAC [Dot plot directed A] (puzzle: Exclusion 2) |  |  | 13.8 | 
10 | UCUGUUAUGCGAGGAUAUCGACCAUUCCUCUUAACAUGAGGAUCACCCAUGUGCUAAUCCUUCAACGAGAAGGCGCUCUUACUC [JR_ExcNG2_Sub069] (Eterna round: R96, puzzle: Exclusion NG 2) | 346 | 268 |  | apparent KD of MS2 coat protein [1]: 114 nM
11 | AAUAACAAGCCGAUCCUCUACAUGAGGAUCACCCAUGUGUUCGUCUUGUAAAGUACUAUCACGAAAGUGAUAGUACA (Eterna round: R97, puzzle: Sensor, turn-off variant 1) | 209 | 244 |  | 
12 | UAUGGUUAAGUCAGGAUAUACAUACAGAAAUCUGAGUAGAAGGGACAUGAGGAUCACCCAUGUAUGGUAGUGUU [Ex4 #55] (Eterna round: R97, puzzle: Brourd's mod of Exclusion 4) | 141 | 96.2 |  | 
13 | CUGUACUGAGGAUAUACAUGAGGAUCACCCAUGUGUUCCAGCUAGGAAACUAGCAAAAGUAGAAGGCAGUACAG [Mat - Exclusion 3 - Eli Mod - D65] (Eterna round: R97, puzzle: Exclusion 3) | 332 | 30.5 |  | 
14 | GUUUCACAUGAGGAUCACCCAUGUGAGGAUAUGUUUUUAAAAGCAAUAGUUUUUGAAAACAGAAGGCGCGUGAU [JR_Exc1_Sub008] (Eterna round: R97, puzzle: Exclusion 1) | 71.6 | 60.5 |  | 
15 | AAGAGUGCAGGAUAUACGUGAUGGAGUAGGAUGAGAGAAGGACAUGAGGAUCACCCAUGUAGAAGGGCAGAGAG [JR_Exclu2_Sub059] (puzzle: Exclusion 2) |  |  | 43.4 | apparent KD of MS2 coat protein [3]: 28.7 nM; apparent KD of MS2 coat protein [4]: 31 nM
16 | UUUUAGGGAGGAUAUACAUUUUUUUUAUUAUCCUCAUUAAUACAUGAGGAUCACCCAUGUAGAAGGCCCAUUUU [Mat - Exclusion 2 - Mod of Hog - D84] (puzzle: Exclusion 2) |  |  | 47.9 | 
17 | GGAAAACAUGAGGAUCACCCAUGUAAGGAUAUGCAAAAGGAUAUAGAAGGAAAAUAAAGCAGAAGGUACAAAGG [salish99-ex1_r3_098] (puzzle: Exclusion 1) |  |  | 23.7 | apparent KD of MS2 coat protein [3]: 126 nM; apparent KD of MS2 coat protein [4]: 127 nM
18 | AUAAAUUUAGAGGAUAUCUUAUAUGGGCGACCGAGAGAAGGCUGGACAUGAGGAUCACCCAUGUGCUUCGGUGA [Eternabot (L1) Solution 96] (Eterna round: R97, puzzle: Exclusion 6) | 67.5 | 75 |  | 

Row | Sequence | apparent KD of MS2 coat protein (input ligand: FMN 200 uM) [nM] | apparent KD of MS2 coat protein (input ligand: none) [nM] | apparent KD of MS2 coat protein [2] [nM] | further results
19 | AGUCGAAAGAACCACAUGGACAUGAGGAUCACCCAUGUGCAAGCCUUUUUCUCGUCACUAUCGUCAAAAGACGAUAG [Omei Mir Offv1 A5] (Eterna round: R97, puzzle: Sensor, turn-off variant 1) | 168 | 227 |  | 
20 | CUUUUGUGAGGAUAUCAGUAGUAGAACAAUAGUACUACUACUGAGAAGGCACAUGAGGAUCACCCAUGUUCUUC [Fiskers Ex 4 Super stable 44 mod 5] (puzzle: Exclusion 4) |  |  | 27.8 | 
21 | AAAUACAGGUAAAGAUUCUACAUGAGGAUCACCCAUGUGCUCGUCUUAUAAAGUACUAUCACGAAAGUGAUAGUACA [Sensor 3, v1 - 40] (puzzle: Sensor v3, turn-off variant 1) |  |  | 169 | apparent KD of MS2 coat protein [3]: 25.9 nM; apparent KD of MS2 coat protein [4]: 21.6 nM
22 | CAGUACGGAGGAUAUACAUGAGGAUCACCCAUGUACGCGGGUGUCACUGGGAGAACUUGUAGAAGGCCGAGUCC [Eternabot (L1) Solution 8] (Eterna round: R97, puzzle: Exclusion 3) | 196 | 107 |  | 
23 | ACAUGAGGAUCACCCAUGUAAACAUGAUGGCUGAUGUAGAGCUAGGAUAUGAGUGAAUAUCUAUCUCAGAAGGAGCUUGACUGG [Deportation 46 - Jieux - Exclusion NG 3] (Eterna round: R96, puzzle: Exclusion NG 3) | 20 | 24.9 |  | apparent KD of MS2 coat protein [1]: 15.8 nM
24 | GUGGCAUGAGGAUAUCGAGGUUAGUACAUGAGGAUCACCCAUGUUAUCCAGGUGUCGGUUCGAGAAGGCAUGGCAC [LRO-Ex5-13] (puzzle: Exclusion 5) |  |  | 250 | 
25 | AAGUAUAGAGGAUAUAGUAGGUACAACAUGAGGAUCACCCAUGUUCUUCAUAACGUAUUUCUAGAAGGCUGAUAAA [EX-5 Malc#27] (puzzle: Exclusion 5) |  |  | 174 | 
26 | AGUAACCGUCACGAAAGUGAUGGUUACGCAAGCAAUUGUACAUGAGGAUCACCCAUGUCCUCAUUUGCUCGUCUUAU [Sensor 3 - 42] (puzzle: Sensor v3, turn-off variant 2) |  |  | 378 | apparent KD of MS2 coat protein [3]: 313 nM; apparent KD of MS2 coat protein [4]: 357 nM
27 | UCAUAACAUGAGGAUCACCCAUGUGAGGAUAUGAUACUAUGUACUUCGGUACAUAGUAUCAGAAGGCACAUACU [Ex1-3: 11] (puzzle: Exclusion 1) |  |  | 88.9 | 
28 | CCUGCACAUGAGGAUCACCCAUGUCAGGAUAUCUCGCCGUGUGGAGCAACACGGUAUAAGAGAAGGGACACGGG [Gegexeusre] (puzzle: Exclusion 1) |  |  | 22.8 | 
29 | CUUUUGUGAGGAUAUGGUCUCGAUGACAUGAGGAUCACCCAUGUAACAUGGGACUUGUGACUAGAAGGCACUAACG [JR_Ex5_Sub024] (Eterna round: R97, puzzle: Exclusion 5) | 22.6 | 16.4 |  | 
30 | UUUUACAUAGGAUAUAGUUGCUUUUACAUGAGGAUCACCCAUGUCUCUCCUCUCUCUCUUCUAGAAGGAUGUUUCU [JR_E5_Sub011] (Eterna round: R96, puzzle: Exclusion 5) | 55.3 | 47 |  | apparent KD of MS2 coat protein [1]: 35.7 nM
31 | AGAAAUGCCCAUGGCCACAAGCUUUUUGCUUAUCUUACCACAUGAGGAUCACCCAUGUGACAUGGGCUCCUGAUAAU [Teedor] (puzzle: Sensor v3, turn-off variant 2) |  |  | 19.4 | apparent KD of MS2 coat protein [3]: 18.5 nM; apparent KD of MS2 coat protein [4]: 17.1 nM
32 | UCGAUGUGAGGAUAUAUUUUUUUUUUUCCUUAUGUUUUAUAACUUGAGGAUCACCCAAGUAGAAGGCGCUACGU [JR_Ex2_Sub063] (Eterna round: R97, puzzle: Exclusion 2) | 70.6 | 136 |  | 
33 | GUGUGCUGAGGAUAUACACAGGAAUAGAAGAUAAGAUAAUCACAUGAGGAUCACCCAUGUAGAAGGCAGAGUGU [Excluse me!! 17 - Jieux - Exclusion 2] (puzzle: Exclusion 2) |  |  | 13.9 | 
34 | CUUUUGUGAGGAUAUUAGUAGUAAAUAAAUAAAAUUACUACUGAGAAGGCACAUGAGGAUCACCCAUGUUCCUU [salish99_ex4_r3_067] (puzzle: Exclusion 4) |  |  | 14 | 
35 | CUAGUCCGAGGAUAUAUAUUGUGAUACAUGAGGAUCACCCAUGUAAUAAUAUGGAAAUAAAUAGAAGGCGGACUAG [Mat - Exclusion 5 - JL mod - D53] (puzzle: Exclusion 5) |  |  | 36.8 | apparent KD of MS2 coat protein [3]: 56.4 nM; apparent KD of MS2 coat protein [4]: 27 nM
